Columns and labels:
[1] = molecular target: MT145K SOSIP.664 trimer (SIVcpzPtt (chimpanzee SIV), isolate MT145); test: cryo-EM structure; unliganded MT145K trimer, global resolution ~4.1 Å
[2] = molecular target: CH01 inferred germline-reverted (iGL) antibody; test: BLI (Octet); conditions: parent: est. 0.12; read off a plot
CAP256 UCA = test: BLI (Octet); conditions: parent: est. 0.19; read off a plot
[3] = pseudovirus neutralization, TZM-bl cells, ID50; conditions: glycan lost; control: MT145K virus

Molecule | response [2] | other results
MT145K SOSIP.664 trimer (complex) | – | stoichiometry N [1]: 3
MT145K SOSIP.664 trimer K171E | 0.015 nm | –
MT145K SOSIP.664 trimer N160K | 0.04 nm | response (CAP256 UCA): 0.015 nm
MT145K SOSIP.664 trimer R166S | 0.1 nm | –
MT145K SOSIP.664 Env trimer (also MT145K Env pseudovirus): MT145K N160A (protein) parent chain: MKVMGMKYYWWRNSCRSISIKLILIGWIASCFGEENWWVTVYYGVPVWREAKTTLFCASDAKSYSTEAHNIWATQACVPTDPTPQEVLLPNVTEEFNMWENYMVDQMQEDIISLWEQSLKPCVKLTPLCVTLTCNNPTNTSCTNSTDDRLGDMRNCSFNVTTELRDKKRQVYSLFYVEDITAIGNNSTYRLINCNTTAITQACPKTSFEPIPIHYCAPAGFALLKCNDIDYKGNETCKNVSTVHCTHGIKPVATTQLILNGSTADNQTVARIDPSENLAIIQLKDPVKITCRRPGNNTRGQIQIGPAMTFYNIENVVGDTRKAYCEINGTQWAKALNETKEVLRNILRKNISFMVPSGGDPEVTNHHFNCGGEFFYCNTSEIINITKINKTENMTIIPCRIRQIVNSWMRVGKGIFAPPIRGNITCTSNITGMLLEIHKNREDQGEDQDQNNTYVCLTGGNMKDIWRSELYKYKIVEIQPLGVAPTKSRRYAVEKQHHREKRALGLGALFLGFLGAAGSTMGAASVVLTVQARQLLTGIVQQQNNLLRAIEAQQHLLQLSVWGIKQLQARVLAVERYLRDQQLLGLWGCTGKTICPTAVRWNKTWGNISDYQVIWNNYTWQQWDREVNNYTGLIYTLLEEANTQQEKNEKELLELDSWANLWSWFDITNWLWYIKMFLIVVGGIIGLRICFAIGSLINRVRKGYSPLSLQTLIPANQGPDGLGETEKGGGENVRGRSIRLVSGFLPLVWEDLRNLLSFLYHQLRDCASLIWRLLEILGQYSLRGVQQIGTLLHQLRGTLQYWTTEIKNSAISLLDTTAIAVGEGTDRILEAITRLGRGILHIPRRIRQGLERALL | – | other: neutralisation sensitivity [3]: decreases
